Data published in publication PMC10252837, “A Novel Time-Resolved Fluorescence Resonance Energy Transfer Assay for the Discovery of Small-Molecule Inhibitors of HIV-1 Tat-Regulated Transcription” (International Journal of Molecular Sciences, 2023).
Square brackets hold non-standard residues; d marks the D form. Ends that are not written are not given here. Peptide text beside a SMILES is read from it. * marks the point of attachment. Biotin = O=C1N[C@H]2[C@H](CS[C@H]2CCCCC(=O)*)N1

What was measured:
[1] = test system: Tat (ARM)-TAR RNA interaction
Method: To test whether our assay is applicable for screening specific inhibitors of the Tat-TAR RNA interaction, inhibition assays were performed with known inhibitors of the Tat-TAR RNA interaction. […] A dose–response competition assay was conducted at inhibitor concentrations of 0–100 μM to determine their inhibitory curves in our assay. […] Additionally, a dose-responsive competition assay using RNA fragments was performed to validate the specificity of the assay.
Data are expressed as the mean ± SD (n = 3) compared to a control lacking an RNA competitor.
The indicated concentrations of ARM and Cy5-TAR RNA fragments were incubated in 20 μL of 1× LANCE ultra assay buffer in 384-well microtiter plates with or without inhibitor (competitor) for 30 min at 20 °C in the dark. […] The reaction was performed in a final volume of 25 μL. Small volumes of the reaction solution were added automatically using Assist-Plus (Integra Bioscience, Zisers, Switzerland). After adding all the assay components, the plates were sealed with a clear cover. The ARM-TAR RNA interaction signal was measured in an EnSight multimode plate reader (PerkinElmer) using the LANCE protocol of the time-resolved fluorescence (TRF) mode in the Kaleido software (PerkinElmer), according to the manufacturer’s protocol. Briefly, the excitation light was directed to the donor (Eu) from the Xenon flash lamp at 320 nm selected by an optical filter, and then, an integration time of 100 μs and a delay time of 70 μs were provided to remove short-lived background signals; subsequently, two emission lights were detected at 615 nm for the donor (Eu) and 665 nm for the acceptor (Cy5). The TRF was measured from the top using an excitation filter and emission monochromators in a single measurement mode. The TR-FRET output signal was expressed as the emission ratio of acceptor/donor (665/615 nm × 1000) fluorescence counts. The fold activity of the TR-FRET signal for ARM-TAR RNA interaction was calculated compared to the control reaction lacking the ARM peptide.

[2] = target: T1, Tat (ARM)-TAR RNA interaction (Human immunodeficiency virus type 1 group M subtype B, UniProt P04608); assay: TR-FRET assay with biotinylated ARM and Eu-conjugated StAV; assay type: binding, HIV-1; conditions: five-thousand-fold excess
T1 construct: purchased Peptron, Daejeon, Republic of Korea (custom peptide synthesis); host or cells: chemical synthesis
Text: Initially, a simplified TR-FRET assay was designed to determine the interaction of Tat (ARM)-TAR RNA using 5′-cyanine 5 (Cy5)-labeled TAR RNA (31 nt) and Tat (ARM) tagged with either biotin, HA, FLAG, or FITC; this was based on size-minimalized analytes to focus on the essential biochemical relevance of the Tat-TAR RNA interaction. After Tat (ARM) binds to the TAR RNA, each Eu-conjugated antibody recognized the cognate tag on the Tat (ARM) peptide. When the reaction is irradiated with a 320 nm laser, the emissive energy from the donor Eu chelate is then transferred to the Cy5 dye-labeled to TAR RNA placed at a close distance (~10 nm), resulting in luminescence at 665 nm from Cy5 and 615 nm from Eu. A certain substance inhibiting the Tat-TAR RNA interaction causes the loss of luminescence in the sample at 665 nm emission (Figure 1A). To determine which Eu-conjugated recognizer (anti-Flag, -HA, FITC antibodies, or streptavidin) is appropriate for successfully establishing the TR-FRET assay, 20 nM of ARM tagged with each epitope and the same concentration of Cy5-labeled TAR RNA fragment were incubated with 5 nM of cognate Eu-conjugated recognizer.
StAV-Eu + + + + + + + + + + + + + + + + + + + + + + StAV-Eu + + + + + + + + + + + + […]
Bio-ARM + + + + + + + + + + + + + + + + + + + + + Biotin-ARM - + - + - + - + - + - +
Competitor BSA ARM L-22 LK-3 L-50
Figure S1. […]

[3] = test system: L-22 cyclic peptide; assay: TR-FRET competition
[4] = test system: L-50 cyclic peptide; assay: TR-FRET competition
[5] = test system: L-51 cyclic peptide; assay: TR-FRET competition
[6] = test system: LK3 peptide; assay: TR-FRET competition
[7] = target: TAR RNA; design: method as in PMID 19584251; conditions: EMSA; read-out: Kd determined by EMSA; cited from earlier work
[8] = test system: HIV-1; conditions: read-out: IC50 of HIV-1 infection; cited from earlier work
[9] = target: T2, Flag-Tat (ARM) (HIV-1 NL4-3, UniProt P04608); assay: TR-FRET; 50 nM each; conditions: tags: N-terminal FLAG; label: 5'-Cy5; hairpin without bulge
T2 chain: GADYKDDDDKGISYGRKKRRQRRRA

[10] = target: T3, Tat (ARM), tag-free (HIV-1 NL4-3, UniProt P04608); assay: competition; TR-FRET, 10-fold excess over Flag-ARM; conditions: label: 5'-Cy5; hairpin with UCU bulge
T3 chain: GISYGRKKRRQRRRA

[11] = target: T2, Flag-Tat (ARM); assay: TR-FRET; up to 100 nM each; Eu-anti-Flag 5 nM; conditions: tags: N-terminal FLAG; label: 5'-Cy5; hairpin with UCU bulge
[12] = target: T4, Biotin-Tat (ARM) (HIV-1 NL4-3, UniProt P04608); assay: TR-FRET; 20 nM each; Eu-StAV; poorly competed by free ARM and L-22; conditions: tags: N-terminal biotin; label: 5'-Cy5; hairpin with UCU bulge
T4 chain: Biotin-GISYGRKKRRQRRRA

Molecule: GISYGRKKRRQRRRA [ARM]
- inhibition of TR-FRET signal ([1]; 500 nM competitor, control of primary screen): ~ 70%
- TR-FRET signal in peptide/protein competition assay, in words ([1]; 10-fold excess competitor, 50 nM analytes): significantly decreased
- inhibition of TR-FRET signal, in words [2]: insufficient inhibition

Molecule: GGCCAGAUCUGAGCCUGGGAGCUCUCUGGCC [Cy5-TAR RNA (31 nt)]
- IC50 [3]: 228 nM
- IC50 [4]: 95.9 nM
- IC50 [5]: 276 nM
- IC50 [6]: 67.8 nM

Molecule: CC[C@H](C)[C@@H]1NC(=O)[C@H](CCCNC(=N)N)NC(=O)[C@H](CCCNC(=N)N)NC(=O)CNC(=O)[C@H](CCCCN)NC(=O)[C@H](CCCNC(=N)N)NC(=O)[C@H]([C@@H](C)O)NC(=O)[C@H](CCCNC(=N)N)NC(=O)[C@H](C(C)C)NC(=O)[C@H](CCCNC(=N)N)NC(=O)[C@@H]2CCCN2C(=O)[C@H]2CCCN2C(=O)[C@H]([C@@H](C)CC)NC(=O)[C@H](CCCNC(=N)N)NC1=O [Hit L-22] (cyclo(RVRTRKGRRIRI[dP]P))
- IC50 ([1]; read-out: IC50 of ARM-TAR RNA interaction (TR-FRET competition), 50 nM Flag-ARM and 5′-Cy5-TAR RNA, inhibitor 0-100 μM): 228 nM
- inhibition of TR-FRET signal, in words [2]: insufficient inhibition
- Kd [7]: 30 nM

Molecule: Nc1ccc2oc(-c3cc(F)c(F)cc3Cl)nc2c1 [Hit T0516-4834]
- IC50 [8]: 200 nM

B1: Cy5-mt TAR RNA (28 nt, bulge-free) (structured_RNA)
RNA: GGCCAGAGAGCCUGGGAGCUCUCUGGCC
- binding result [9]: no binding

B2: Cy5-TAR RNA (31 nt) (structured_RNA)
RNA: GGCCAGAUCUGAGCCUGGGAGCUCUCUGGCC
- binding result [10]: binds
- binding signal [11]: ~11 fold signal over background
- binding result [12]: binds
